According to paper PMC9001736 (Scientific Reports, 2022):

What was measured:
[1] = target: T1, HERC2_(ZZ-DOC) (aa 2702–2914), construct encompassing both ZZ and DOC domains (human, UniProt O95714 2702-2914); assay: NMR titration; 1H,15N HSQC of 0.1–0.2 mM 15N-labelled HERC2 protein titrated with unlabeled protein or peptide; 298 K; 20 mM Tris (pH 6.8) or 20 mM PBS (pH 6.5), 150 mM NaCl, 2 mM DTT, 10% D2O; conditions: both partners purified
T1 construct: E3 ubiquitin ligase HERC2, human, ZZ and DOC domains, aa 2702–2914; 15N-labelled for NMR; also called linked HERC2_(ZZ-DOC); source: E. coli BL21 (DE3) RIL, purified (Ni-NTA, ULP1 cleavage); not shown: His8x-SUMO, N-terminal, cleaved

[2] = target: T2, ZZ domain of HERC2 (HERC2ZZ, aa 2702–2755 with additional tryptophan at the C-terminus) (human, UniProt O95714 2702-2755); assay: as above; conditions: both partners purified
T2 construct: E3 ubiquitin ligase HERC2, human, ZZ domain, aa 2702–2755 of the 4834 residue protein; additional tryptophan residue introduced at the C-terminus of HERC2ZZ to quantify the protein and for the tryptophan fluorescence assay; 15N-labelled in the NMR titrations where it is the observed protein; also called HERCZZ; WT HERC2ZZ; source: E. coli BL21 (DE3) RIL, purified (Ni-NTA, ULP1 cleavage; unlabeled …)
T2 chain: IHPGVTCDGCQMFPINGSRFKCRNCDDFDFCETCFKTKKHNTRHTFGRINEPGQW

binding result [1]: binds
binding result [2]: binds
B1: histone H3_(1–12) peptide (aa 1–12 of H3) (peptide, UniProt P68431 2-13, looked up)
peptide: ARTKQTARKSTG
notes: histone H3, aa 1–12; also called H3 peptide
